Test results as given in patent US20220339289A1 (Bicycle, published 2022).
Starred links: 1 amine or outer side, 2 acyl side, 3 side chain; linkers in the order of their positions; H or OH if unused. Positions of bridges follow the written chain, without caps; N, C: chain ends. *: point of attachment. TATA = O=C(CC[*:1])N1CN(C(=O)CC[*:2])CN(C(=O)CC[*:3])C1; Pent4ynoyl = C#CCCC(=O)*

Biological target: T1, Recombinant biotinylated human P-Selectin protein (human, UniProt P16109 42-771, limits assumed, biotinylated (site not stated))
T1 sequence (looked up): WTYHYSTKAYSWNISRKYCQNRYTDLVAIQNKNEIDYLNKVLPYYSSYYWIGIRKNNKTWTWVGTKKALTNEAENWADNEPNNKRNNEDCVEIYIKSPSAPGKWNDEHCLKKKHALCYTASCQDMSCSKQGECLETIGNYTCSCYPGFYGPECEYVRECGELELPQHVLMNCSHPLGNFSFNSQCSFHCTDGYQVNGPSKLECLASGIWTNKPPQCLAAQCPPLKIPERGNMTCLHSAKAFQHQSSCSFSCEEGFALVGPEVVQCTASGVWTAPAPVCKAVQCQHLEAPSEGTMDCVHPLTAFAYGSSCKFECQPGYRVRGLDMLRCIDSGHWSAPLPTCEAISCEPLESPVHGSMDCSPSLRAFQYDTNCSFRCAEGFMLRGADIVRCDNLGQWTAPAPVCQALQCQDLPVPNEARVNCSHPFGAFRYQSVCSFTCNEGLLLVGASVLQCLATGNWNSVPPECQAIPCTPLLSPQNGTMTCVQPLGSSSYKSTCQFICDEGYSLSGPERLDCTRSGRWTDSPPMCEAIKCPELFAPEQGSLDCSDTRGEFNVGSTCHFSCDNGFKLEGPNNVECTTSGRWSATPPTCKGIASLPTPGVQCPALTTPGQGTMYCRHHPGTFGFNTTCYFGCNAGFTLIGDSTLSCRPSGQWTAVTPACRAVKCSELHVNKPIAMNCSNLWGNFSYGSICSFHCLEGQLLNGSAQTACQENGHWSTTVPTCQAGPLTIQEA
Assay: SPR (Biacore), biotinylated human P-selectin captured on streptavidin chip, peptide as analyte; peptide BCY5455, a separate peptide number
Method: Biacore experiments were performed to determine ka (M−1s−1), kd (s−1), KD (nM) values of monomeric peptides binding to human Selectin proteins. Recombinant biotinylated human P-Selectin protein was used. For analysis of binding, either a Biacore 3000 or 5200 instrument was used with a CMS sensor chip (GE Healthcare). For sensor chip surface preparation, streptavidin was immobilized on the chip using standard amine-coupling chemistry at 25° C. with HBS-N (10 mM HEPES, 0.15 M NaCl, pH 7.4) as the running buffer. The carboxymethyl dextran surface was activated with a 12 min injection of a 1:1 ratio of 0.4 M 1-ethyl-3-(3-dim ethyl aminopropyl) carbodiimide hydrochloride (EDC)/0.1 M N-hydroxy succinimide (NHS) at a flow rate of 10 μl/min. For capture of streptavidin, protein was diluted to 0.2 mg/ml in 10 mM sodium acetate (pH 4.5) and captured by injecting 70 μl onto the activated chip surface. Residual activated groups were blocked with a 7 min injection of 1 M ethanolamine (pH 8.5). Biotinylated protein stock was diluted 1:100 in HBS-N and captured on one flow cell at 5 μl/min to a level of 1000-1500 RU. Buffer was changed to PBS/0.05% Tween 20 and a dilution series of the peptides was prepared in this buffer with a final DMSO concentration of 0.5%. […] In all cases a titration was performed with either seven 2-fold dilutions or five 3-fold dilutions. […]

B1: BCY5455 (peptide)
peptide: Pent4ynoyl-ACYMEWCDVTDYGCA-NH2
modifications: linker 2-7-14 via TATA; also: tandem dimer of 2 copies via central hinge C (GTA) and spacer S1A n=23 joined to N-terminal Pya
Q: For B1, which Kd is on record?
A: The Kd was 1.25 µM.
